Publication PMC12013513 (2025)

B1: GST-ANI-1^C-term (681-1159 AA) [C. elegans] / 10xHis-RHO-1^WT (wild type RHO-1, 1-188 AA) [C. elegans] (parent complex)
chain 1: DDDATTQFPVPERSRKSSSQLAYSVSFYRKIQRDRNEESSTVLAGPVISQISPSAPPMSSSLTSQQKLRQLTTGPANGARIVESAKDAHDRIKRAIQVEEQLVAQSKRAMILARDKPSFRGSREEFEAQWAMLRHVEKHRALLTEYDRLKRDGPRIIDGPRGTITVSQLSVNMARDYVSANIASSKKSDEVFYFAAILRYGEQVDVSKMVTSDGGLNRRGVLEFPVPLMLTGIPPDFRATVEIYGQRSMRESTSHEDKYKLKNSTFKAKTRNTFLGGGSTSSANQSLFVDPAASSSSTSSTTSNFNLLGTFSFDINCPGKHLYNMSHTVYPLEGITQMKVRKQAIDGADITYHGFLSMYQRTGEGLGSWTRYWCALENGEMKFWKQPEDEGTKGYTALMDLSTCCRSEGASVVEDICPFPNSFHIDVWAPKMDTSDPRGIERLRVMLAADTAQDLQTWLSLINSTSKQLCTWRNPIVNQ
chain 2: not shown

Variants of: B1
Test: pull-down; parent: 14; read off a plot

| response | Variant |
| --- | --- |
| ~17 % of Bound RHO-1 | chain 1 A109D, chain 1 E127K |
